Data on 1 substance can be found in publication PMC3496993.

This assay deals with α2β1 integrin on K562 cells transfected with the α2 integrin subunit (not stated | human (endogenous in K562)) (UniProt P17301).
Chain of UniProt P17301 (P17301 30-1181, chain 1 of 2): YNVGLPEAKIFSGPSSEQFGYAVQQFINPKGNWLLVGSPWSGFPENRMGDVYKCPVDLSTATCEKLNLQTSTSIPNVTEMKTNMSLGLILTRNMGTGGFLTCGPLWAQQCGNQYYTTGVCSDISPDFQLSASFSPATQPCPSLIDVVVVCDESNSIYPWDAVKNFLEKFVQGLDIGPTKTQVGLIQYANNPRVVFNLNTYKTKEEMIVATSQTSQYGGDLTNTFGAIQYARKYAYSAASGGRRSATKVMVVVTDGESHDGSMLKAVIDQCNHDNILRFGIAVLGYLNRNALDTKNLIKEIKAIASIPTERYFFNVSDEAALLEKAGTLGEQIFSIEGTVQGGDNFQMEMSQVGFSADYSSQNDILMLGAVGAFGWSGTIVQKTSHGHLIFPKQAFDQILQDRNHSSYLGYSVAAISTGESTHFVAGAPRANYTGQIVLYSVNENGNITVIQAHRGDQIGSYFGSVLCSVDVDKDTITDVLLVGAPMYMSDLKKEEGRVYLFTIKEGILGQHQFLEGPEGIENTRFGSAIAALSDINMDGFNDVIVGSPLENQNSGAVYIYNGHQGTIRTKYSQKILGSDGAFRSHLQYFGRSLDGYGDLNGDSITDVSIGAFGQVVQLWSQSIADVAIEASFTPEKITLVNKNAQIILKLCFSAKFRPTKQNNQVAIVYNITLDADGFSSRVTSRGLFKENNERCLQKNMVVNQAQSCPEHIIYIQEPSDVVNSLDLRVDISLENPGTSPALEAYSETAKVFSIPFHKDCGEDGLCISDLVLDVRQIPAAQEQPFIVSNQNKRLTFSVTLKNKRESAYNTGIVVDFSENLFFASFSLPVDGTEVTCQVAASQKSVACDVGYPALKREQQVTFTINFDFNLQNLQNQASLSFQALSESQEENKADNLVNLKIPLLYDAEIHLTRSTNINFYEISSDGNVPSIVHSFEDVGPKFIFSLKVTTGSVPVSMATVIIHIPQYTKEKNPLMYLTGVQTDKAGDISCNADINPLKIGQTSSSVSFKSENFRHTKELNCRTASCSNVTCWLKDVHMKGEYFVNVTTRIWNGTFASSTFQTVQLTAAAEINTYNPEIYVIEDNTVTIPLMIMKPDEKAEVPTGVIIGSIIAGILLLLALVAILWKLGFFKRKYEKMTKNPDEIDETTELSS
Chain of UniProt P17301 (P05556 21-798, chain 2 of 2, further chain): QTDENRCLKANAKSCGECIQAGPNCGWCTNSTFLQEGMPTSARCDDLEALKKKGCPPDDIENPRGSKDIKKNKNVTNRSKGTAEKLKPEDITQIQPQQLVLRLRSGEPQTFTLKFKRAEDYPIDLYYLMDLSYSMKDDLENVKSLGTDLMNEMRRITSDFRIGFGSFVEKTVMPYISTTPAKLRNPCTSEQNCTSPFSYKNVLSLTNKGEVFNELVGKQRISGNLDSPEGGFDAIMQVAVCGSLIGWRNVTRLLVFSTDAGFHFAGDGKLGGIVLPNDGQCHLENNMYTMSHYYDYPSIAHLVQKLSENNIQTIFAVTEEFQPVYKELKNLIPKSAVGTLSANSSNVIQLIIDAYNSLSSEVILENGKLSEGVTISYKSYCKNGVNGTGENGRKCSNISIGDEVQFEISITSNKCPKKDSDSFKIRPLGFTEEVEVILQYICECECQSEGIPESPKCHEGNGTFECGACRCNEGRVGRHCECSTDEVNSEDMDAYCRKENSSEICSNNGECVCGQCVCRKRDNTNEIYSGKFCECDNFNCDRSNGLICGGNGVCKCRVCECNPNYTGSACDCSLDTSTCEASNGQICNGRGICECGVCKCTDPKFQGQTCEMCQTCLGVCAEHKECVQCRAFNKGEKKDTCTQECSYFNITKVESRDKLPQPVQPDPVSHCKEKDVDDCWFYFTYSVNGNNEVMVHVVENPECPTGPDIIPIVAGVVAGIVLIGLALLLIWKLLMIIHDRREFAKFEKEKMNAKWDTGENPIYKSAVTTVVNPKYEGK

Substance “Vixapatin (VP12), C-type lectin-like protein from Vipera xantina palestinae venom (complex)” came in with an IC50 of inhibition of adhesion of α2K562 transfectants to immobilised collagen I (blocks collagen I with α2β1), dose-response of Vixapatin of 3.2 nM.
